# Measurements: patent publication US11485991B2, “Multifunctional recombinant nucleotide dependent glycosyltransferase protein and its method of glycosylation thereof” (Council of Scientific & Industrial Research, priority 2016, dated 2022)
# Ends that are not written are not given here.
# Tests used:
# [1] = system: Listeria monocytogenes EGD-e; experiment: Agar well diffusion assay of antimicrobial activity of enterocin 96 glycoforms (zone of growth inhibition); type: cell-based; settings: 50 μM glycoform in agar wells, BHI agar seeded with Listeria monocytogenes EGD-e, 37° C. for 12 h
# Protocol: The di-glycosylated, mono-glycosylated and un-glycosylated glycoforms corresponding to enterocin 96 (known bacteriocin) peptide sequence are prepared under controlled GT assay conditions and purified using RP-HPLC based method. The lyophilized product glycoforms including glyco-diversified forms are resuspended in 50 mM Tris-Cl, pH 7.5. The culture of Listeria monocytogenes EGD-e is grown in BHI media at 37° C. for 7-8 h. Agar plates are prepared by mixing 25 μL of saturated culture (A600≈1.5) and 100 mL of molten BHI agar (cooled to 40-45° C.) and pouring the mixture into sterile petri plates. The seeded agar plates are allowed to solidify for 30-45 min and agar wells are prepared using a sterile cork borer. 50 μM of all glycoforms including glyco-diversified forms are poured in to the wells and plates are incubated at 37° C. for 12 h. The antimicrobial activity is determined by the presence and absence of zone of growth inhibition.
# [2] = system: synthetic acceptor substrates; experiment: In vitro glycosyltransferase (GT) assay of GT-CTH mutants with MS detection of glycosylated product; type: biochemical; settings: purified mutant of GT-CTH, acceptor substrate and UDP-glucose, MS analysis
# Protocol: Purified recombinant nucleotide dependent glycosyltransferase (0.2 μM) is incubated with synthetic acceptor substrates (5 μM) and 100 μM UDP-glucose in a reaction buffer containing 20 mM HEPES, pH 7.5, 50 mM NaCl, 1 mM TCEP and 1 mM MgCl2. The reaction is incubated at 25° C. for 12 h. Each assay reaction was accompanied by control reaction (without enzyme). The reactions are quenched with 5% TFA to pH 2, desalted using ZipTip C18, and vacuum dried and analyzed using mass spectrometry.
# Mass spectrometry has been used to detect glycosylation in product of glycosylation assay reactions using Matrix Assisted Laser Desorption Ionization Time of flight mass spectrometry (MALDI-TOF MS) and Liquid chromatography electrospray ionization mass spectrometry (LC/ESI-MS) techniques. MALDI-TOF MS has carried out at AB Sciex 5800 MALDI TOF/TOF and LC/ESI-MS has carried out at 6550 iFunnel QTOF LC/MS (Agilent Technologies) using Zorbax Eclipse plus C8 column (3.0×150 mm, 5μ) of Agilent technologies. For MALDI-TOF analysis and LC-ESI/MS analysis, vacuum dried samples are reconstituted in water and 0.1% formic acid respectively.
# Various mutations are introduced in recombinant nucleotide dependent glycosyltransferase (GT-CTH) using side directed mutagenesis (Quick change lightning Mutagenesis kit, Agilent) using GTpET28a plasmid as template. The sequence of mutants is verified through DNA sequencing. The mutated recombinant plasmids are transformed into E. coli Lemo21(DE3) and E. coli BL21(DE3) cells for expression. The over expression, purification and functional analysis of mutants of recombinant nucleotide dependent glycosyltransferase proteins are performed using the above mentioned methods. The list of mutants of recombinant nucleotide dependent glycosyltransferase, created in accordance with present invention identifies D102, R136, W147, D152, A153, D154 residues critical for activity of recombinant nucleotide dependent glycosyltransferase (GT-CTH). Replacement of these residues to alanine results into abolishment of the glycosyltransferase activity.
Molecule,antimicrobial activity (presence and absence of zone of growth inhibition) [1],In vitro glycosyltransferase activity status [2]
"di-glucosylated product: Enterocin 96 peptide (SEQ ID NO: 4) carrying a glucose-glucose disaccharide glycan, made with the recombinant glycosyltransferase (MSKRDCNLMKACCAGQAVTYAIHSLLNRLGGDSSDPAGCNDIVRKYCK; cysteine pairing not given here; also: glucose-glucose disaccharide glycan, site not given here)",more antimicrobial activity than mono-glucosylated product,
GT-CTH C87A (protein) MGYSENFIANDWFNVEVFNKNKYTLTNQENKDVTELWLQILKGLKFPNELKETVSYSKNLKELSLKTHAEVSVCIIAKNEQDSIRKAINSIYEFSDEIIFIDTGSIDSTKKIVKEIASEKVKIFDYTWQDDFSDARNYSIQKASKEWILIIDADEYVSSDELIKLRLLIDMLDRFKFKDSLRVSCAIYQLDNVITHGQSRLFRNNNKIKYYGLIHEELRNNKGLDPIFNVESEITFFHDGYKEILRKEKCERNIRLLAKMLEKEPDNVRWAYLYCRDSFSINSNIDFEKILLPFLIKNMDESISCENILLTNYTHLILFLITKKYIIDGKSSLASKCIEVLEKMLPNSSDVTFYKFLNKQHSLYEQQFEFLKEVIQFRKNNEYDQYSQIGCNLLHYDLLISGLLFDVKSYDYSYQYFLKLDLANYFSELEIPDEYKMLINKYRENESLEHHHHHH,,Active
GT-CTH D102A (protein) MGYSENFIANDWFNVEVFNKNKYTLTNQENKDVTELWLQILKGLKFPNELKETVSYSKNLKELSLKTHAEVSVCIIAKNEQDSIRKCINSIYEFSDEIIFIATGSIDSTKKIVKEIASEKVKIFDYTWQDDFSDARNYSIQKASKEWILIIDADEYVSSDELIKLRLLIDMLDRFKFKDSLRVSCAIYQLDNVITHGQSRLFRNNNKIKYYGLIHEELRNNKGLDPIFNVESEITFFHDGYKEILRKEKCERNIRLLAKMLEKEPDNVRWAYLYCRDSFSINSNIDFEKILLPFLIKNMDESISCENILLTNYTHLILFLITKKYIIDGKSSLASKCIEVLEKMLPNSSDVTFYKFLNKQHSLYEQQFEFLKEVIQFRKNNEYDQYSQIGCNLLHYDLLISGLLFDVKSYDYSYQYFLKLDLANYFSELEIPDEYKMLINKYRENESLEHHHHHH,,Inactive
GT-CTH D130A (protein) MGYSENFIANDWFNVEVFNKNKYTLTNQENKDVTELWLQILKGLKFPNELKETVSYSKNLKELSLKTHAEVSVCIIAKNEQDSIRKCINSIYEFSDEIIFIDTGSIDSTKKIVKEIASEKVKIFDYTWQADFSDARNYSIQKASKEWILIIDADEYVSSDELIKLRLLIDMLDRFKFKDSLRVSCAIYQLDNVITHGQSRLFRNNNKIKYYGLIHEELRNNKGLDPIFNVESEITFFHDGYKEILRKEKCERNIRLLAKMLEKEPDNVRWAYLYCRDSFSINSNIDFEKILLPFLIKNMDESISCENILLTNYTHLILFLITKKYIIDGKSSLASKCIEVLEKMLPNSSDVTFYKFLNKQHSLYEQQFEFLKEVIQFRKNNEYDQYSQIGCNLLHYDLLISGLLFDVKSYDYSYQYFLKLDLANYFSELEIPDEYKMLINKYRENESLEHHHHHH,,Active
GT-CTH E97A (protein) MGYSENFIANDWFNVEVFNKNKYTLTNQENKDVTELWLQILKGLKFPNELKETVSYSKNLKELSLKTHAEVSVCIIAKNEQDSIRKCINSIYEFSDAIIFIDTGSIDSTKKIVKEIASEKVKIFDYTWQDDFSDARNYSIQKASKEWILIIDADEYVSSDELIKLRLLIDMLDRFKFKDSLRVSCAIYQLDNVITHGQSRLFRNNNKIKYYGLIHEELRNNKGLDPIFNVESEITFFHDGYKEILRKEKCERNIRLLAKMLEKEPDNVRWAYLYCRDSFSINSNIDFEKILLPFLIKNMDESISCENILLTNYTHLILFLITKKYIIDGKSSLASKCIEVLEKMLPNSSDVTFYKFLNKQHSLYEQQFEFLKEVIQFRKNNEYDQYSQIGCNLLHYDLLISGLLFDVKSYDYSYQYFLKLDLANYFSELEIPDEYKMLINKYRENESLEHHHHHH,,Active
